Key:
[1] = target: HLA-A2.1 molecules on T2 (TAP-, HLA-A2.1+) cells (human); assay: T2 cells, stabilisation assay, BB7.2 flow cytometry at 0, 2, 4, 6, 8 h
[2] = target: HLA-A2.1 molecules on T2 (TAP-, HLA-A2.1+) cells (human); assay: T2 cells, peptide binding by surface HLA-A2.1 (BB7.2) flow cytometry; ratio of concentrations reaching 20% of maximal binding

Substance: Tyrosinase 368-376-N epitopic peptide
- DC50 (half-life of peptide-HLA-A2.1 complexes) [1]: > 8 h
- RA (relative affinity) (ratio to HIV 1 rt.476 reference peptide) [2]: 2.2
